Like-named read-outs stand apart in the source and are kept apart here.
Tests used:
[1] = molecular target: T1, Ube2D3(C85S) (human, UniProt P61077 1-147, C85S); assay: NMR titration
[2] = molecular target: Ube2D1 (human, UniProt P51668 1-147); assay: ITC
[3] = molecular target: T1, Ube2D3(C85S); assay: NMR titration; remark: listed apart in the source

Chain of Ube2D1 (P51668 whole entry): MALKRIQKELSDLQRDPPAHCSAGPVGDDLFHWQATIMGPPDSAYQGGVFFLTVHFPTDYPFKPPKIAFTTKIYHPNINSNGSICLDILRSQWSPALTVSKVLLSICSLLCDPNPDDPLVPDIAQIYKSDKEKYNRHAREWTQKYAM
T1 sequence (P61077 whole entry C85S): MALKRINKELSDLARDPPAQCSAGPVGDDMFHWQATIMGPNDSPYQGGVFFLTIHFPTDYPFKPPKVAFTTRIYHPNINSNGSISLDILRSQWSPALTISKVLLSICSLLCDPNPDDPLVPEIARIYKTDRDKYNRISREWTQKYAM

binding result [2] | Binder | other results
– | UHRF1-UBL (residues 1–76) (domain or fragment, human, UniProt Q96T88 1-76, looked up) MWIQVRTMDGRQTHTVDSLSRLTKVEELRRKIQELFHVEPGLQRLFYRGKQMEDGHTLFDYEVRLNDTIQLLVRQS | Kd [1]: 15 µM
binds | UHRF1-UBL K50R (domain or fragment, human, UniProt Q96T88 1-76, looked up) MWIQVRTMDGRQTHTVDSLSRLTKVEELRRKIQELFHVEPGLQRLFYRGRQMEDGHTLFDYEVRLNDTIQLLVRQS | –
binds | UHRF1-UBL W2V (domain or fragment, human, UniProt Q96T88 1-76, looked up) MVIQVRTMDGRQTHTVDSLSRLTKVEELRRKIQELFHVEPGLQRLFYRGKQMEDGHTLFDYEVRLNDTIQLLVRQS | –
binds | UHRF1-UBL F59V (domain or fragment, human, UniProt Q96T88 1-76, looked up) MWIQVRTMDGRQTHTVDSLSRLTKVEELRRKIQELFHVEPGLQRLFYRGKQMEDGHTLVDYEVRLNDTIQLLVRQS | –
binds | UHRF1-UBL L65A (domain or fragment, human, UniProt Q96T88 1-76, looked up) MWIQVRTMDGRQTHTVDSLSRLTKVEELRRKIQELFHVEPGLQRLFYRGKQMEDGHTLFDYEVRANDTIQLLVRQS | –
– | UHRF2-UBL (residues 1–81) (domain or fragment, UniProt Q96PU4 1-81, looked up) MWIQVRTIDGSKTCTIEDVSRKATIEELRERVWALFDVRPECQRLFYRGKQLENGYTLFDYDVGLNDIIQLLVRPDPDHLP | Kd [3]: 215 µM
